Experimental data reported in US20110024630A1, “System, Device, and Methods for Real-Time Screening of Live Cells, Biomarkers, and Chemical Signatures” (BATTELLE MEMORIAL INSTITUTE, priority 2009, published 2011).

Tested on: JB6 carcinogenesis mouse endothelial model cells
Experiment: Real-time ATR-FTIR monitoring of confluent cells treated with tumor promoter (bFGF)
Format: cell-based
Conditions: 72-hour time point, bFGF added at 48 hours
Procedure: Spent media was replaced with fresh media at 24-hour intervals. Cells were confluent at 24 hours and had attached to the ATR substrate. […] The 1604 cm^−1 band also contains a broad water band which is observed at the 6.5 hour time point where there is greater media contact with the ATR substrate due to a non-confluent cell monolayer. […] Tyrosine aromatic rings absorb in the 1508 cm^−1 region and the symmetric carboxylate stretching vibrations are reflected in the band at 1452 cm^−1. Overall, data reflect the ability to obtain spectra over a period of days which show the attachment of cells to the substrate and a response to perturbation.
Mouse cells (JB6 carcinogenesis mouse endothelial model cells) (clone 41-5a, ATCC, Manassas, Va., USA) were maintained in a minimal essential medium (MEM+GlutaMAX-I™, CISCO, Grand Island, N.Y.) supplemented with 5% fetal bovine serum (FBS) (Atlanta Biologicais, Norcross, Ga.) that further included: 1% penicillin/streptomycin (GIBCO, Grand Island, N.Y.) and an additional 1%. GlutaMAX-I™ (GIBCO, Grand Island, N.Y.). Cells were maintained at 37° C. and 5% CO2 in an incubator (e.g., a ThermoForma Series II Water Jacketed CO2 incubator. Thermo Fisher Scientific, inc., Waltham, Mass.) equipped with a HEPA filter. The JB6 cells were subcultured at 70-80% confluency following standard protocols. […]

How did the “cell outcome to which spectral results are attributed” value turn out when basic fibroblast growth factor [bFGF] was run?
The value was “cell death”.

What about the “1696 cm^-1 amide peak” value (FIG. 7b) of the same substance?
The value was “increased intensity and has broadened”.
